{
  "source": "the supplement of paper PMC10567573",
  "parents": {"B1": {"name": "C22orf15 (parent)", "chain": "RGRHEQSPTSRPRKVSSLPPRSC"}},
  "data": [
    {"variants_of": "B1", "test": "protein stability index of a GFP-peptide fusion (GPS, HEK-293T) (PSI 1-6); higher = more stable", "conditions": "c terminus: native", "values": [
      {"variant": "RGRHEQSPTSRPRKVSSLPPSSC", "protein stability index": 4.8},
      {"variant": "RGRHEQSPTSRPRKVSSLPPASC", "protein stability index": 4.53},
      {"variant": "RGRHEQSPTSRPRKVSSLPPNSC", "protein stability index": 4.68},
      {"variant": "RGRHEQSPTSRPRKVSSLPPHSC", "protein stability index": 4.53},
      {"variant": "RGRHEQSPTSRPRKVSSLPPPSC", "protein stability index": 4.74},
      {"variant": "RGRHEQSPTSRPRKVSSLPPMSC", "protein stability index": 3.66},
      {"variant": "RGRHEQSPTSRPRKVSSLPPLSC", "protein stability index": 3.37},
      {"variant": "RGRHEQSPTSRPRKVSSLPPDSC", "protein stability index": 5.37},
      {"variant": "RGRHEQSPTSRPRKVSSLPPVSC", "protein stability index": 2.88},
      {"variant": "RGRHEQSPTSRPRKVSSLPPFSC", "protein stability index": 4.25},
      {"variant": "RGRHEQSPTSRPRKVSSLVPRSC", "protein stability index": 2.86},
      {"variant": "RGRHEQSPTSRPRKVSSLDPRSC", "protein stability index": 3.23},
      {"variant": "RGRHEQSPTSRPRKVSSLLPRSC", "protein stability index": 3.07},
      {"variant": "RGRHEQSPTSRPRKVSSLYPRSC", "protein stability index": 3.14},
      {"variant": "RGRHEQSPTSRPRKVSSLFPRSC", "protein stability index": 2.19},
      {"variant": "RGRHEQSPTSRPRKVSSLIPRSC", "protein stability index": 1.81},
      {"variant": "RGRHEQSPTSRPRKVSSLAPRSC", "protein stability index": 4.11},
      {"variant": "RGRHEQSPTSRPRKVSSLSPRSC", "protein stability index": 3.79},
      {"variant": "RGRHEQSPTSRPRKVSSLRPRSC", "protein stability index": 2.13},
      {"variant": "RGRHEQSPTSRPRKVSSLQPRSC", "protein stability index": 1.44},
      {"variant": "RGRHEQSPTSRPRKVSSLTPRSC", "protein stability index": 4.33},
      {"variant": "RGRHEQSPTSRPRKVSSLMPRSC", "protein stability index": 1.93},
      {"variant": "RGRHEQSPTDRPRKVSSLPPRSC", "protein stability index": 1.09},
      {"variant": "RGRHEQSPTVRPRKVSSLPPRSC", "protein stability index": 2.85},
      {"variant": "RGRHEQSPTPRPRKVSSLPPRSC", "protein stability index": 1.61},
      {"variant": "RGRHEQSPTARPRKVSSLPPRSC", "protein stability index": 1.64},
      {"variant": "RGRHEQSPTCRPRKVSSLPPRSC", "protein stability index": 2.51},
      {"variant": "RGRHEQSPTFRPRKVSSLPPRSC", "protein stability index": 1.99},
      {"variant": "RGRHEQSPTKRPRKVSSLPPRSC", "protein stability index": 1.93},
      {"variant": "RGRHEQSPTHRPRKVSSLPPRSC", "protein stability index": 1.87},
      {"variant": "RGRHEQSPTTRPRKVSSLPPRSC", "protein stability index": 2.83},
      {"variant": "RGRHEQSPTRRPRKVSSLPPRSC", "protein stability index": 1.8},
      {"variant": "RGRHEQSPHSRPRKVSSLPPRSC", "protein stability index": 1.83},
      {"variant": "RGRHEQSPASRPRKVSSLPPRSC", "protein stability index": 3.73},
      {"variant": "RGRHEQSPSSRPRKVSSLPPRSC", "protein stability index": 2.58},
      {"variant": "RGRHEQSPRSRPRKVSSLPPRSC", "protein stability index": 3.3},
      {"variant": "RGRHEQSPYSRPRKVSSLPPRSC", "protein stability index": 2.35},
      {"variant": "RGRHEQSPKSRPRKVSSLPPRSC", "protein stability index": 2.44},
      {"variant": "RGRHEQSPGSRPRKVSSLPPRSC", "protein stability index": 2.07},
      {"variant": "RGRHEQSPCSRPRKVSSLPPRSC", "protein stability index": 1.52},
      {"variant": "RGRHEQSPTSQPRKVSSLPPRSC", "protein stability index": 3.32},
      {"variant": "RGRHEQSPTSKPRKVSSLPPRSC", "protein stability index": 3.4},
      {"variant": "RGRHEQSPTSTPRKVSSLPPRSC", "protein stability index": 2.51},
      {"variant": "RGRHEQSPTSWPRKVSSLPPRSC", "protein stability index": 5},
      {"variant": "RGRHEQSPTSAPRKVSSLPPRSC", "protein stability index": 2.33},
      {"variant": "RGRHEQSPTSGPRKVSSLPPRSC", "protein stability index": 2.87},
      {"variant": "RGRHEQSPTSPPRKVSSLPPRSC", "protein stability index": 3.98},
      {"variant": "RGRHEQSPTSSPRKVSSLPPRSC", "protein stability index": 2.31},
      {"variant": "RGRHEQSPTSNPRKVSSLPPRSC", "protein stability index": 2.35},
      {"variant": "RGRHEQVPTSRPRKVSSLPPRSC", "protein stability index": 3.68},
      {"variant": "RGRHEQRPTSRPRKVSSLPPRSC", "protein stability index": 2.69},
      {"variant": "RGRHEQYPTSRPRKVSSLPPRSC", "protein stability index": 2.32},
      {"variant": "RGRHEQNPTSRPRKVSSLPPRSC", "protein stability index": 2.44},
      {"variant": "RGRHEQFPTSRPRKVSSLPPRSC", "protein stability index": 2.94},
      {"variant": "RGRHEQDPTSRPRKVSSLPPRSC", "protein stability index": 2.76},
      {"variant": "RGLHEQSPTSRPRKVSSLPPRSC", "protein stability index": 4.27},
      {"variant": "RGVHEQSPTSRPRKVSSLPPRSC", "protein stability index": 2.05},
      {"variant": "RGCHEQSPTSRPRKVSSLPPRSC", "protein stability index": 3.01},
      {"variant": "RGIHEQSPTSRPRKVSSLPPRSC", "protein stability index": 3.03},
      {"variant": "RGHHEQSPTSRPRKVSSLPPRSC", "protein stability index": 2.76},
      {"variant": "RGKHEQSPTSRPRKVSSLPPRSC", "protein stability index": 2.27},
      {"variant": "RGRHEQSPTSRPRKVVSLPPRSC", "protein stability index": 3.6},
      {"variant": "RGRHEQSPTSRPRKVNSLPPRSC", "protein stability index": 2.53},
      {"variant": "RGRHEQSPTSRPRKVISLPPRSC", "protein stability index": 1.98},
      {"variant": "RGRHEQSPTSRPRKVQSLPPRSC", "protein stability index": 2.92},
      {"variant": "RGRHEQSPTSRPRKVKSLPPRSC", "protein stability index": 2.94},
      {"variant": "RGRHEQSPTSRPRKVFSLPPRSC", "protein stability index": 3.32},
      {"variant": "RGRHEQSPTSRPRKVPSLPPRSC", "protein stability index": 2.77},
      {"variant": "RGRHEQSPTSRPRKVMSLPPRSC", "protein stability index": 2.63},
      {"variant": "RGRHEQSPTSRPRKVWSLPPRSC", "protein stability index": 1.81},
      {"variant": "RGRHEQSPTSRPRKVYSLPPRSC", "protein stability index": 3.44},
      {"variant": "RGRHEQSPTSRPRKVASLPPRSC", "protein stability index": 1.95},
      {"variant": "RGRHEQSPTSRPRKVTSLPPRSC", "protein stability index": 2.07},
      {"variant": "RGRHEQSPTSRPRKVDSLPPRSC", "protein stability index": 2.87},
      {"variant": "RGRHEQSPTSRPRKVHSLPPRSC", "protein stability index": 2.57},
      {"variant": "RGRHEISPTSRPRKVSSLPPRSC", "protein stability index": 4.15},
      {"variant": "RGRHEYSPTSRPRKVSSLPPRSC", "protein stability index": 2.05},
      {"variant": "RGRHESSPTSRPRKVSSLPPRSC", "protein stability index": 1.79},
      {"variant": "RGRHEVSPTSRPRKVSSLPPRSC", "protein stability index": 3.92},
      {"variant": "RGRHETSPTSRPRKVSSLPPRSC", "protein stability index": 1.97},
      {"variant": "RGRHELSPTSRPRKVSSLPPRSC", "protein stability index": 2.54},
      {"variant": "RGRHEWSPTSRPRKVSSLPPRSC", "protein stability index": 4.38},
      {"variant": "RGRREQSPTSRPRKVSSLPPRSC", "protein stability index": 3.58},
      {"variant": "RGRFEQSPTSRPRKVSSLPPRSC", "protein stability index": 2.91},
      {"variant": "RGRAEQSPTSRPRKVSSLPPRSC", "protein stability index": 1.91},
      {"variant": "RGRIEQSPTSRPRKVSSLPPRSC", "protein stability index": 3.17},
      {"variant": "RGRNEQSPTSRPRKVSSLPPRSC", "protein stability index": 3.03},
      {"variant": "RGRTEQSPTSRPRKVSSLPPRSC", "protein stability index": 3.06},
      {"variant": "RGRCEQSPTSRPRKVSSLPPRSC", "protein stability index": 2.55},
      {"variant": "RGRVEQSPTSRPRKVSSLPPRSC", "protein stability index": 2.38},
      {"variant": "RGRHKQSPTSRPRKVSSLPPRSC", "protein stability index": 2.68},
      {"variant": "RGRHRQSPTSRPRKVSSLPPRSC", "protein stability index": 2.19},
      {"variant": "RGRHPQSPTSRPRKVSSLPPRSC", "protein stability index": 2.93},
      {"variant": "RGRHFQSPTSRPRKVSSLPPRSC", "protein stability index": 2.19},
      {"variant": "RGRHYQSPTSRPRKVSSLPPRSC", "protein stability index": 4.38},
      {"variant": "RGRHLQSPTSRPRKVSSLPPRSC", "protein stability index": 2.09},
      {"variant": "RGRHNQSPTSRPRKVSSLPPRSC", "protein stability index": 2.19}
    ]}
  ]
}
